# In the Immune Epitope Database (IEDB):
# What was measured:
# [1] = molecular target: HLA-A*02:01; test: IEDB peptide-MHC binding, cellular MHC/competitive/fluorescence; ≥ and ≤ were set here for values at or beyond the usual limits of such assays
# [2] = molecular target: HLA-A*02:02; test: as above
# [3] = molecular target: HLA-A*68:02; test: as above
# [4] = molecular target: HLA-A*02:06; test: as above
# [5] = molecular target: HLA-A*02:03; test: IEDB peptide-MHC binding, purified MHC/competitive/radioactivity; ≥ and ≤ were set here for values at or beyond the usual limits of such assays
# [6] = molecular target: HLA-A*02:01; test: as above; conditions: source organism: Vaccinia virus WR
# [7] = source organism: Vaccinia virus WR
# [8] = source organism: Influenza A virus
Sequence,"IC50 [1, 7] [µM]","IC50 [2, 7] [µM]","IC50 [3, 7] [µM]","IC50 [4, 7] [µM]","IC50 [5, 7] [µM]","IC50 [1, 8] [µM]","IC50 [2, 8] [µM]","IC50 [3, 8] [µM]","IC50 [4, 8] [µM]","IC50 [5, 8] [µM]",IC50 [6] [µM]
EILRNYLRL,10.5,14,9.23,12.9,2.09,–,–,–,–,–,–
KLYIALCKVT,–,7.11,18.6,6.36,0.625,–,–,–,–,–,–
AMHDKKIDI,8.85,17.2,8,42,1.52,–,–,–,–,–,–
KTKISVEKI,26.9,7.6,≥ 70,10.7,0.112,–,–,–,–,–,–
SVKYYGRST,25.9,6.79,30.7,19.5,1.16,–,–,–,–,–,–
GIRCVSNLDI,≥ 70,20.1,≥ 70,33,3.87,–,–,–,–,–,–
TLNRNQPAA,–,–,–,–,–,15.2,11.4,≥ 70,≥ 70,0.583,–
LVITYCLVT,–,6.98,5.75,8.01,3.25,–,–,–,–,–,1.33
HQRRLVKLL,26.6,15.9,≥ 70,21.3,1.68,–,–,–,–,–,–
TLNTMTKDA,–,–,–,–,–,10.2,14.7,≥ 70,≥ 70,0.581,–
IIELPYVGDT,46.8,13.7,≥ 70,17,4.42,–,–,–,–,–,–
GILIYDDNI,11.3,11.7,33.5,13.3,1.7,–,–,–,–,–,–
LAKSVFNSL,–,–,–,–,–,30.9,14,≥ 70,17.1,3.1,–
QVKDNIISRT,40.9,17.8,24.2,34.3,0.421,–,–,–,–,–,–
DAKRNSKSLV,30.3,13.3,12.6,52.1,2.87,–,–,–,–,–,–
AAGAAVKGV,–,–,–,–,–,56.8,≥ 70,26,25.5,2.3,–
NTSQRGIL,–,–,–,–,–,6.68,5.1,≥ 70,≥ 70,2.79,–
EQYTCNKPYT,≥ 70,14,20.4,45.7,3.01,–,–,–,–,–,–
GIIITVGML,6.56,8.67,19.6,18.4,0.349,–,–,–,–,–,–
EIVSHLRAST,≥ 70,5.15,6.33,12.6,2.81,–,–,–,–,–,–
TAGNKVDVDI,40.2,11,9.83,38.1,3.5,–,–,–,–,–,–
RLLKNMKQCT,9.76,46.8,≥ 70,11.9,3.14,–,–,–,–,–,–
NLERETGLSA,17.5,17.6,31.3,15,1.66,–,–,–,–,–,–
MISTYPGNT,22.1,5.49,14.7,25.7,0.229,–,–,–,–,–,–
RTRLYDYFT,49.5,7.1,27.2,48.7,3.05,–,–,–,–,–,–
DIRDKYMEL,10.3,24.3,14.7,14.6,3.86,–,–,–,–,–,–
IAMLKSKNI,46.7,37.7,5.87,10.6,0.846,–,–,–,–,–,–
